In patent publication US8802630B2, “Method of treating brain injury” (Buddhist Tzu Chi General Hospital, priority 2011, dated 2014):
Where no end group is shown, it is not given here.

Experiments:
[1] = Evaluation of physiological parameters (MABP, heart rate, rectal temperature, blood gases); format: in vivo, rats; settings: for RT (rectal temperature) / pCO2 / pO2 / pH: ICH + L-UCN 2.5 μg/kg i.p.; for decrease in MABP / increase in HR: 1.0 to 3.0 h post-treatment; for pH: arterial blood
Description: Rats were randomly assigned for evaluation of physiological parameters including mean arterial blood pressure, blood gases, body weight changes and body temperature. Under urethane (urethane (1.0 g/kg bodyweight, intraperitoneally, Sigma-Aldrich) anesthesia, a femoral artery was cannulated with a PE-50 polyethylene tube for fluid supplementation and monitoring of arterial blood pressure and blood gas. Arterial blood pressure was recorded through an amplifier (MP35, BIOPAC system, Inc.) and stored in a PC computer. Body temperature (rectal temperature) was automatically maintained at 37.5±0.5° C. by a rectal temperature sensor and a heating pad (CMA-150, Sweden). The physiological parameters were measured before (baseline) and after treatment (UCN or Saline) 0.5, 1 and 3 hours.

[2] = tested on: collagenase-induced ICH rats; assay: Morphometric measurement of lesion volume / injured area; format: in vivo; settings: for injured area: UCN 5 μg i.c.v.
Excerpt: […] The brains were cut coronally through the needle entry site (identifiable on the brain surface), and then serially sliced (2-mm thickness) anteriorly and posteriorly to the needle entry site. Digital photographs of the serial slices were taken and lesion volume was computed using image analyzer program (Image J, NIH). The total lesion volume (mm^3) was computed by summing the residual blood clot and damaged area in each section and multiplying by the distance between sections (Jung et al., 2004).

[3] = tested on: collagenase-induced ICH rats; assay: Assessment of blood-brain barrier disruption (Evans blue extravasation); format: in vivo
Description: Rats were randomly used in assessment of the vascular permeability of BBB with a modified Evans blue extravasation method (Esen et al., 2005). Briefly, 70 hours post-ICH, rats were anesthetized with chloral hydrate (0.4 g/kg) and infused, via the right femoral vein with 37° C. Evans blue dyes (2% in 0.9% normal saline, 4 ml/kg) over 5 minutes. Two hours later, the rats were perfused with 300 ml normal saline to wash out any remaining dye in the blood vessels and then brains were removed and sectioned into 2 mm thickness by a rodent brain matrix. Coronal brain sections were taken starting at +2 mm and ending at −4 mm from Bregma. BBB permeability was evaluated in the striatum, cortex and cerebellum. The cerebellum was used as an internal control. Each portion was weighed immediately and placed in 1 ml of 0.9% normal saline for homogenization of the sample. For protein precipitation, 1 ml of 60% trichloroacetic acid solution was added and vortexed for 2 minutes. The mixture was subsequently cooled for 30 minutes and centrifuged (1500 g at 4° C.) for another 30 minutes. The absorbance of Evans blue in the supernatant was then measured with a spectrophotometer (Molecular Devices OptiMax, USA) at 610 nm The dye concentration was expressed as μg/g of tissue weight and calculated from a standard curve obtained from known amounts of the dye.

[4] = tested on: NeuN+ cells (neurons); assay: Immunohistochemistry of neuronal loss (NeuN); format: in vivo, rats; settings: perihematomal region; L-UCN 2.5 μg/kg i.p.; day 3 post-ICH
Description: Rats were used in immunohistochemistry on day 3 post-ICH. Rats were anesthetized as described above and transcardially perfused with cold 0.1 M phosphate buffer saline followed by cold 4% paraformaldehyde in 0.1 M phosphate-buffered saline. Brains were removed and immersed in 4% paraformaldehyde for 24 hours and 30% sucrose for another 24 hours. Coronal brain sections (20 μm thickness) were cut and collected from 0.0 to −2.0 mm AP to bregma using a cryostat (Leica CM 1900). Three 20 μm coronal sections, representing the core of the hematoma, were taken starting at 0.0 mm from bregma (the needle entry site). Additional adjacent serial coronal sections taken through the center of the hemorrhagic lesion were processed for the counting of marker-specific cells (Jung et al., 2004). Antibodies of OX-42 (1:100; BD, USA), ED-1 (1:100; BD, USA) were used as microglial markers, and NeuN (1:200, Chemicon, USA) was used as neuron marker. Tissues sections were incubated with the primary antibodies overnight at 4° C. […] The numbers of positive cells in the same focal plane were counted in 6 regions of interest around the ipsilateral striatum (perihematomal region, 1 mm^2) All cell counting was done by an independent investigator counted the positive cells.

[5] = Cerebral blood flow after bolus injection of UCN; format: in vivo; settings: UCN 25 μg/kg body weight
[6] = UCN 2.5 μg/kg i.p. 1 h after ICH

urocortin (DNPSLSIDLTFHLLRTLLELARTQSQRERAEQNRIIFDSV; ends and bridges not checked; UniProt P55089 83-122, looked up) [UCN, a 40-amino-acid endogenous neuropeptide, belongs to the corticotrophin releasing hormone (CRH) family]
RT (rectal temperature) ([1]; 0.5 h post-treatment): 36.95 ± 0.03 °C
pCO2 ([1]; 0.5 h post-treatment): 45.07 ± 1.05 mmHg
pO2 ([1]; 0.5 h post-treatment): 105.24 ± 6.00 mmHg
RT (rectal temperature) ([1]; 1.0 h post-treatment): 37.00 ± 0.05 °C
pCO2 ([1]; 1.0 h post-treatment): 42.60 ± 2.44 mmHg
pO2 ([1]; 1.0 h post-treatment): 107.28 ± 5.35 mmHg
RT (rectal temperature) ([1]; 3.0 h post-treatment): 36.97 ± 0.02 °C
pCO2 ([1]; 3.0 h post-treatment): 43.25 ± 1.59 mmHg
pO2 ([1]; 3.0 h post-treatment): 107.90 ± 5.59 mmHg
RT (rectal temperature) ([1]; baseline): 36.92 ± 0.05 °C
pCO2 ([1]; baseline): 46.73 ± 1.80 mmHg
pO2 ([1]; baseline): 100.00 ± 4.40 mmHg
decrease in MABP [1, 6]: ≤ 25 mm Hg
increase in HR [1, 6]: ≤ 35 beats/min
mean arterial blood pressure ([1]; UCN 5 μg i.c.v., over 3 hours): no significant difference
fall in mean arterial blood pressure (MABP) ([1]; UCN 25 μg/kg body weight, bolus intraperitoneal injection): 40-50 mmHg
fall of MABP ([1]; UCN 25 μg/kg body weight, bolus intravenous injection, vs intraperitoneal): much more abrupt fall of MABP
decrease in MABP ([1]; UCN 25 μg/kg i.p.): ≤ 40 mm Hg
increase in HR ([1]; UCN 25 μg/kg i.p.): ≤ 45 beats/min
pH ([1]; 0.5 h post-treatment): 7.39 ± 0.01
pH ([1]; 1.0 h post-treatment): 7.42 ± 0.01
pH ([1]; 3.0 h post-treatment): 7.42 ± 0.01
pH ([1]; baseline): 7.37 ± 0.02
lesion volume ([2]; L-UCN 2.5 μg/kg i.p., day 3 post-ICH): 23.73±1.79 mm^3
injured area ([2]; day 3 after ICH): 16.14±1.22 mm^2
injured area ([2]; day 7 after ICH): 5.62±1.04 mm^2
Evans blue dye concentration ([3]; cerebellum, contralateral cerebral cortex and striatum, L-UCN 2.5 μg/kg i.p., day 3): not changed
Evans blue dye concentration ([3]; contralateral striatum, contralateral and ipsilateral cortices, cerebellum, UCN 5 μg i.c.v., day 3, vs ICH+Saline): not different
Evans blue dye concentration ([3]; ipsilateral cortex, L-UCN 2.5 μg/kg i.p., day 3 post-ICH): 0.38 ± 0.05 µg/g
Evans blue dye concentration ([3]; ipsilateral striatum, L-UCN 2.5 μg/kg i.p., day 3 post-ICH): 1.73 ± 0.36 µg/g
Evans blue concentration ([3]; ipsilateral striatum, UCN 5 μg i.c.v., day 3 after ICH): 1.24 ± 0.31 µg/g
NeuN+ cells [4]: 397.00±39.74 cells/6 mm^2
reduction of the cerebral blood flow (CBF) ([5]; bolus intraperitoneal injection): 25%
reduction of CBF ([5]; bolus intravenous injection): 40-45%
